Data published in patent US10906977B2, “Enhancing the therapeutic activity of immune checkpoint inhibitor” (Maine Medical Center Research Institute, priority 2016, dated 2021).

What was measured:
TGF-β = assay: Serum cytokines in B16F10 tumor bearing mice injected with cPG peptide (ELISA); assay type: in vivo, C57BL/6 mice; conditions: injected 3× per week; serum after 14 days; FIG. 26A
Procedure: FIG. 26A-FIG. 26C is a series of bar charts showing that the injection of a peptide (cPG) containing the HU177 collagen epitope induces expression of the immune suppressive growth factor TGF-β in mouse circulation. C57BL/6 mice were injected subcutaneously with B16F10 melanoma cells (0.5×10^6) and tumors were allowed to form. Mice were next injected 3× per week with […] per mouse of cPG peptide. Serum was […] after 14 days. Serum was diluted in assay buffer and the relative levels of cytokines were examined by ELISA. FIG. 26A is a bar graph wherein data bars represent relative levels of TGF-β as determined by ELISA from control (DMSO) treated mouse and two different cPG peptide treated mice. FIG. 26B is a bar graph wherein data bars represent relative levels of IL-4 as determined by ELISA from control (DMSO) treated mouse and two different cPG peptide treated mice. FIG. 26C is a bar graph wherein data bars represent relative levels of IL-1β as determined by ELISA from control (DMSO) treated mouse and two different cPG peptide treated mice.
C57BL/6 mice were injected subcutaneously with B16F10 melanoma cells (0.5×10^6) and tumors were allowed to form. […] FIG. 26A is a bar graph wherein data bars represent relative levels of TGF-β as determined by ELISA from control (DMSO) treated mouse and two different cPG peptide treated mice. […]

integrin α10β1 [1] = biological target: T1, integrin α10β1 (Homo sapiens, UniProt O75578+P05556); assay: Solid-phase integrin binding to synthetic HU177 epitope (PGF peptide); conditions: peptide immobilized 100 ug/ml; FIG. 23F
T1 construct: purchased R&D Systems
T1 sequence (O75578 23-1122 limits assumed): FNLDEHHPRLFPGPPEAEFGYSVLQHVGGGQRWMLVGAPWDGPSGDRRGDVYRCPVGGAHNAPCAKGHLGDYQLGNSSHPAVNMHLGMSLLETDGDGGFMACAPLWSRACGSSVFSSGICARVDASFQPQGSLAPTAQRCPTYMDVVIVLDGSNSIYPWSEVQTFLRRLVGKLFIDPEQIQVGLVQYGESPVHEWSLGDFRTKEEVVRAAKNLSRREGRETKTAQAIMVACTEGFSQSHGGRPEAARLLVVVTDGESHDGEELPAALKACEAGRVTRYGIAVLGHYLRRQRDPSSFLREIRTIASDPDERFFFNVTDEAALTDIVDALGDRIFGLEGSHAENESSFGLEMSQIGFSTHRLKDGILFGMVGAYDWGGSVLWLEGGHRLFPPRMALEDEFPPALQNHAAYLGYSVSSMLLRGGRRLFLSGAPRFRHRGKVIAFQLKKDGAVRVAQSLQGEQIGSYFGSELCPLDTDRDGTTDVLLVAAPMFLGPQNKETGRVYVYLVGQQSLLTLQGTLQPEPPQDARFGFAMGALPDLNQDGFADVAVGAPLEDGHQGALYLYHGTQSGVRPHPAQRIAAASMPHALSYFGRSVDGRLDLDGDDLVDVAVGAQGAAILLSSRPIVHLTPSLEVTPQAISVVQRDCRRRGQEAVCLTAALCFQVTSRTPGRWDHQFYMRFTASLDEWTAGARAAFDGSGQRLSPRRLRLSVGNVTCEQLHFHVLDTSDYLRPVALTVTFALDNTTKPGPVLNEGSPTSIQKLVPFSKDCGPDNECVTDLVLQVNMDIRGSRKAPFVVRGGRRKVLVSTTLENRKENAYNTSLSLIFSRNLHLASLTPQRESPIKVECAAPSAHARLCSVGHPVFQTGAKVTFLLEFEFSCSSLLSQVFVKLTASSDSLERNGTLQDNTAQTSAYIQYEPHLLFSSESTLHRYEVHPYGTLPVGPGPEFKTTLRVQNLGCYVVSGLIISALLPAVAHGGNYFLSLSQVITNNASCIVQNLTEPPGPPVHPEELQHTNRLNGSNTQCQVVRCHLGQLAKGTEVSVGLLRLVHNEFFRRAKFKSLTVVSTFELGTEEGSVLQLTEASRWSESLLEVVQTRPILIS
T1 sequence (P05556 21-728 limits assumed): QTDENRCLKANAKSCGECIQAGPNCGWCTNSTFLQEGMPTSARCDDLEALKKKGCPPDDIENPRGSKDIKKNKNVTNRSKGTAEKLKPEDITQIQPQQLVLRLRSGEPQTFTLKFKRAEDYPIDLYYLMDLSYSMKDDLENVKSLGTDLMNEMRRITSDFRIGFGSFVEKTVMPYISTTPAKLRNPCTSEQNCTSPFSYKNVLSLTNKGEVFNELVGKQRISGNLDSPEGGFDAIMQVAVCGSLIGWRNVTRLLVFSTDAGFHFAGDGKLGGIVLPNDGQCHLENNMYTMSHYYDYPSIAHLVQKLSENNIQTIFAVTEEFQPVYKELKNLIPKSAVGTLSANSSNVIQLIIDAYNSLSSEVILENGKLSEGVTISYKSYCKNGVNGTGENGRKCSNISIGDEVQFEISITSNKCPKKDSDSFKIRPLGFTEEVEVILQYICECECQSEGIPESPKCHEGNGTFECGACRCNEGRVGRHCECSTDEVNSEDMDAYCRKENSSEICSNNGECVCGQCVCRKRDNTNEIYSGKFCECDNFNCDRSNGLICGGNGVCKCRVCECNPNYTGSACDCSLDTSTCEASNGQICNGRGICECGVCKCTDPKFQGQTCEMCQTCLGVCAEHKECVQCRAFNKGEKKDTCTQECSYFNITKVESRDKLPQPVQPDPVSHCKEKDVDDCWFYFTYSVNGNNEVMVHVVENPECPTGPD
Procedure: (§1) Plates were coated with 25 μg/ml of native or denatured (boiled 15 minutes) collagen. Collagen epitope peptide PGF and Cont-peptides were immobilized at 100 ug/ml. Integrins (0-2.0 μg/ml) were diluted in binding buffer containing 20 mM Tris, 15 mM NaCl, 1 mM MgCl2, 0.2 mM MnCl2, 0.5% BSA pH 7.4 as described (13). Integrins were allowed to bind for 1 hr and plates washed and incubated with anti-integrin antibodies (1:100 dilution) for 1 hr. Plates were washed and incubated with HRP-labeled secondary antibodies (1:5000 dilution). In a second assay, integrins (0.5 μg/ml) were coated in binding buffer and plates were washed, blocked as before and denatured (boiled 15 minutes) collagen was added (0-10.0 μg/ml). Denatured collagen was detected with anti-collagen antibody (1:1000). For integrin blocking ELISAs, wells were coated with denatured collagen and pre-treated (0.1 μg/ml) with anti-HU177 or control antibody. Following washing, wells were incubated with integrins (2.0 μg/ml) and binding was detected as described. Assays were carried out at least 3 times.

integrin α2β1 [2] = biological target: T2, integrin α2β1 (Homo sapiens, UniProt P05556+P17301); assay: as above; conditions: peptide immobilized 100 ug/ml; FIG. 23F
T2 construct: purchased R&D Systems
T2 sequence (P17301 30-1132 limits assumed): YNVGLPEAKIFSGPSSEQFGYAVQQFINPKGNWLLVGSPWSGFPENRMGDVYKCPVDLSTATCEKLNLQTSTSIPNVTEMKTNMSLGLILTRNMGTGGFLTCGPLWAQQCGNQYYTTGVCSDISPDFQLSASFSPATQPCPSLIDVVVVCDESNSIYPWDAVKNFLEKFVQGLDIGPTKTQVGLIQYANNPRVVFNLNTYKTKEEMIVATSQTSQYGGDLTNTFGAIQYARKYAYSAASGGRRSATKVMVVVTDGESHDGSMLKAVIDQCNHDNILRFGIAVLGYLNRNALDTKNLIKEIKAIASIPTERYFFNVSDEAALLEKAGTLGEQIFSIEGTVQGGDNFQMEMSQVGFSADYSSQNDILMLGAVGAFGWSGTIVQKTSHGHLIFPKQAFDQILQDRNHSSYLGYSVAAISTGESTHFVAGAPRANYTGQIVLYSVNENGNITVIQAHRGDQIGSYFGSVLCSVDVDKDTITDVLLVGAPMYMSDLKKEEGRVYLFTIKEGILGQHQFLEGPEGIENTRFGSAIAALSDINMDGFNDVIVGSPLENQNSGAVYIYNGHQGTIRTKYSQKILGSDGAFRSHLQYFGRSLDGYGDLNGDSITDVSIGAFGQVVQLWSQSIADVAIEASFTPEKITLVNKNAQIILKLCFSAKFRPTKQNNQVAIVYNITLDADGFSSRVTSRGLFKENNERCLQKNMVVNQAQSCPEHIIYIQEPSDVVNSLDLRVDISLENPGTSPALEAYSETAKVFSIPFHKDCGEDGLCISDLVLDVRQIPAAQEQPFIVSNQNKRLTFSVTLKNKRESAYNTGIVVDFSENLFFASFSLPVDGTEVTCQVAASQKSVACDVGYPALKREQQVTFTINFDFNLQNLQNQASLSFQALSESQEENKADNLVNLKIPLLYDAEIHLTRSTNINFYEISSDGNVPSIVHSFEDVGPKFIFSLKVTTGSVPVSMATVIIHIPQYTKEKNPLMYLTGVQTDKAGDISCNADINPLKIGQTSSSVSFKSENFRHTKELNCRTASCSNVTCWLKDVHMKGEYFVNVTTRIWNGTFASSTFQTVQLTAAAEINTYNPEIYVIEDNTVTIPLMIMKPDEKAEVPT
T2 sequence (P05556 21-728 limits assumed): as the sequence (P05556 21-728 limits assumed) above
Procedure: as §1

integrin αvβ3 [3] = biological target: T3, integrin αvβ3 (Homo sapiens, UniProt P05106+P06756); assay: as above; conditions: peptide immobilized 100 ug/ml; FIG. 23F
T3 construct: purchased R&D Systems (Minneapolis, Minn.)
T3 sequence (P06756 31-992 limits assumed): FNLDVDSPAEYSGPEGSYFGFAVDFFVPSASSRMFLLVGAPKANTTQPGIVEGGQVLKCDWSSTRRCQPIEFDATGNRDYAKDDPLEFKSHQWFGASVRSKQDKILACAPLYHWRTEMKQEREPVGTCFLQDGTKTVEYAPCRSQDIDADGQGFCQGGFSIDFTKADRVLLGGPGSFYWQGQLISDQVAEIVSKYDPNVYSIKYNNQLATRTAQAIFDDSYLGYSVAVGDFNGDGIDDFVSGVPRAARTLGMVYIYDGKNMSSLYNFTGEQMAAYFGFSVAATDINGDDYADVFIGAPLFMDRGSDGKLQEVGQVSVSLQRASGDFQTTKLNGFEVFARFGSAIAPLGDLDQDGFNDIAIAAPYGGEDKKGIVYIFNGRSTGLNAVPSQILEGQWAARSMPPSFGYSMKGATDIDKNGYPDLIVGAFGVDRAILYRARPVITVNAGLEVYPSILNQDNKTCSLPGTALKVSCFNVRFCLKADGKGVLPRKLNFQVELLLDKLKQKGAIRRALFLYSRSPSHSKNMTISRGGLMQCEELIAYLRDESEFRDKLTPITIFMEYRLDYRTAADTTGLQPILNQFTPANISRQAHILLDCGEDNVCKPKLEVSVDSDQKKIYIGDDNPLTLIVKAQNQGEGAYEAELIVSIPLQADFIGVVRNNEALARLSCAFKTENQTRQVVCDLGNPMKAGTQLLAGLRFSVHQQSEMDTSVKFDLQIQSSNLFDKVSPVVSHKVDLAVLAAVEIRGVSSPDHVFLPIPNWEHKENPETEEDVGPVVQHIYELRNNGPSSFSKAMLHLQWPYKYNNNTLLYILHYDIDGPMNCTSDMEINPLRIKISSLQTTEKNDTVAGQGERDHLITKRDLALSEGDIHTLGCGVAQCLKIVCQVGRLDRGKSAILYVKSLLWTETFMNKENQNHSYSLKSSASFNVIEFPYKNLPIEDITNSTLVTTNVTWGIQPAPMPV
T3 sequence (P05106 27-718 limits assumed): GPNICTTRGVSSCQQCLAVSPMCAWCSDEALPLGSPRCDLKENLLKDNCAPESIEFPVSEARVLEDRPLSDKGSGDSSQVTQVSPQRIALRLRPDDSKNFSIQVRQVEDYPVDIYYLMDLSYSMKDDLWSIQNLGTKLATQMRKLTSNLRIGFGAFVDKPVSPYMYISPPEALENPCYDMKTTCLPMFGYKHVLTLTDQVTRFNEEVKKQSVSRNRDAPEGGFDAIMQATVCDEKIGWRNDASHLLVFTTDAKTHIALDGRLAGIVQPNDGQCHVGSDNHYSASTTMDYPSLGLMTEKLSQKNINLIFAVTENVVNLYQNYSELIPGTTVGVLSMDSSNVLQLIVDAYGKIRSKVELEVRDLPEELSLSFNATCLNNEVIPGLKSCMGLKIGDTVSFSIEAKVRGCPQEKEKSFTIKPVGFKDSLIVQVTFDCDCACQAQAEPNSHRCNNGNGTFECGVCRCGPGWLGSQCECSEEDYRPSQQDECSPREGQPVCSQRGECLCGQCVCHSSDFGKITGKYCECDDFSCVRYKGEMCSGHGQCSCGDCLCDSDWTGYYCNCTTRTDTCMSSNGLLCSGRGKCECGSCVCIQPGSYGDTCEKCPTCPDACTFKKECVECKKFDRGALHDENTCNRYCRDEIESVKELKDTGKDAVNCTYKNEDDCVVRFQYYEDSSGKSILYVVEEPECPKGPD
Procedure: as §1

integrin α10β1 [4] = biological target: T1, integrin α10β1; assay: Solid-phase integrin binding to denatured collagen
Procedure: as §1

PDL-1 [5] = assay: PDL-1 protein in M21 melanoma cells on immobilized XL313 epitope (Western blot); assay type: cell-based, human; conditions: 15 minute incubation; vs uncoated wells; FIG. 15
Procedure: Integrin αvβ3 expressing melanoma cells (M21) were seeded on control uncoated wells or wells immobilized with the XL313 cryptic collagen epitope (RGDKGE (SEQ ID NO: 1)). Following a 15 minute incubation cell lysates were prepared. The relative levels of PDL-1 or loading control β-actin were assessed by Western blot.
Integrin αvβ3 expressing melanoma cells (M21) were seeded onto control uncoated wells or wells immobilized with the XL313 cryptic collagen epitope (RGDKGE (SEQ ID NO: 1)) (FIG. 15). Following an incubation period, cell lysates were prepared and relative levels of PDL-1 were assessed.

PDL-1 [6] = assay: PDL-1 protein in cells attached to denatured collagen-IV (Western blot); assay type: cell-based; conditions: M21, CCL-49, HUVEC; vs native collagen-IV; FIG. 14
Procedure: FIG. 14A and FIG. 14B are blots of integrin αvβ3 expressing melanoma cells (M21 and […]) and FIG. 14C is a blot depicting that endothelial cells (HUVEC) were allowed to attach to well coated with either a non-αvβ3 binding ligand (native collagen-IV) or an αvβ3 binding ligand (denatured collagen-IV). Whole cell lysates were prepared and the relative levels of PDL-1 or loading control β-actin were assessed by Western blot.
Integrin αvβ3 expressing melanoma cells M21 (FIG. 14A) and CCL-49 (FIG. 14B) and endothelial cells (HUVEC) (FIG. 14C) were attached to wells coated with either a non-αvβ3 binding ligand (native collagen-IV) or an αvβ3 binding ligand (denatured collagen-IV). Whole cell lysates were prepared and the relative levels of PDL-1 or β-actin loading control were assessed.

SKOV-3 cells [7] = assay: Transwell cell migration on native or denatured collagen; assay type: cell-based, human; conditions: FIG. 20C
Procedure: (§2) Transwell membranes (8.0 um pore size) were coated with 5 μg/ml of native or denatured collagen for 12 hrs at […] as described previously (13). Migration buffer containing RPMI 1640, 1 mM MgCl2, 0.2 mM MnCl2 and 0.5% BSA in the presence or absence of 5× concentrated serum free SKOV-3 CM or 20 ng/ml FGF-2 was placed in the lower chambers. SKOV-3 or fibroblasts (1×105) were resuspended in migration buffer containing RPMI 1640, 1 mM MgCl2, 0.2 mM MnCl2 and 0.5% BSA in the presence or absence of antibodies directed to the HU177 epitope, or α10β1, (10 μg/ml) or 100 uM of the MEK inhibitor ([…]). Cells were added to the top chamber and allowed to migrate from 2 to 4 hrs. Cells remaining on the top of the membranes were removed and cells that had migrated to the underside of the membrane were quantified by direct cell counts of crystal violet stained cells or by measuring the optical density of eluted cell-associated crystal violet dye as previously described (15). Assays were completed at least 3×.

fibroblasts [8] = assay: as above; assay type: cell-based, human; conditions: FIG. 20D
Procedure: as §2

SKOV-3 cells [9] = assay: Cell adhesion on native or denatured collagen; assay type: cell-based, human; conditions: FIG. 20A
Procedure: (§3) The wells of non-tissue culture forty-eight well cluster plates were coated for 12 hrs at 4° C. with 5 μg/ml of native or denatured (boiled 15 minutes) collagen prepared as described above. SKOV-3 and fibroblasts were suspended in adhesion buffer containing RPMI 1640, 1 mM MgCl2, 0.2 mM MnCl2 and 0.5% BSA (13) and 1×10^5 cells were added in the presence or absence of anti-HU177 or control antibodies (100 μg/ml). Cells were allowed to attach for 25 minutes. Non-attached cells were removed by washing and attached cells stained with crystal violet as described (13). Wells were washed and the cell-associated crystal violet was eluted with 100 ul per well of 10% acetic acid. Cell adhesion was quantified by measuring the optical density of the eluted crystal violet as described (15). Assays were completed at least 3×.

fibroblasts [10] = assay: Cell adhesion on native or denatured collagen; assay type: cell-based, human; conditions: FIG. 20B
Procedure: as §3

integrin α1β1 = biological target: T4, integrin α1β1 (Homo sapiens, UniProt P05556+P56199); assay: Solid-phase integrin binding to denatured collagen; conditions: FIG. 23A
T4 construct: purchased R&D Systems (Minneapolis, Minn.)
Procedure: as §1

integrin α2β1 [11] = biological target: T2, integrin α2β1; assay: Solid-phase integrin binding to denatured collagen; conditions: FIG. 23A
Procedure: as §1

integrin αvβ3 [12] = biological target: T3, integrin αvβ3; assay: Solid-phase integrin binding to denatured collagen; conditions: FIG. 23A
Procedure: as §1

CPGFPGFC [PGF peptide]
expression of TGF-β in mouse serum (TGF-β): induce the expression | binding of α10β1 to the synthetic HU177 epitope, relative to α2β1 (integrin α10β1 [1]): 4 fold | direct binding of α2β1 to the synthetic HU177 epitope (integrin α2β1 [2]): bound | direct binding of αvβ3 to the synthetic HU177 epitope (integrin αvβ3 [3]): failed to bind | competition of binding of α10β1 to denatured collagen (integrin α10β1 [4]; soluble peptide, FIG. 23G): approximately 60%

RGDKGE (immobilized on wells) [XL313 epitope]
levels of PDL-1 protein in M21 melanoma cells following binding (PDL-1 [5]): enhanced levels of PDL-1 protein

denatured collagen-IV: αvβ3 binding ECM ligand coated on wells
levels of PDL-1 protein in melanoma and endothelial cells following binding (PDL-1 [6]): enhanced levels of PDL-1 protein

denatured collagen: collagen type-I denatured by boiling the solution for 15 minutes
enhancement of SKOV-3 migration as compared to native collagen (SKOV-3 cells [7]): 34% | enhancement of fibroblast migration as compared to native collagen (fibroblasts [8]): 19% | enhancement of SKOV-3 adhesion as compared to native collagen (SKOV-3 cells [9]): 38% | enhancement of fibroblast adhesion as compared to native collagen (fibroblasts [10]): 29% | binding of integrin α1β1 to denatured collagen (integrin α1β1): minimal interactions | binding of denatured collagen and integrin α10β1 (integrin α10β1 [4]; FIG. 23A, 23B): dose dependently bound | binding of integrin α2β1 to denatured collagen (integrin α2β1 [11]): dose dependently bound | binding of integrin αvβ3 to denatured collagen (integrin αvβ3 [12]): dose dependently bound
